Data as given in the supplement of paper PMC11246515.
± gives the standard deviation of the averaged measurements.

Assay: total protein half-life in vivo (active degradation + dilution); higher = more stable protein
[1] = E. coli NCM3722 delta-clpP delta-lon delta-hslV, growth: N-lim chemostat, doubling time 6 h
[2] = E. coli NCM3722 delta-clpP, growth: N-lim chemostat, doubling time 6 h
[3] = E. coli NCM3722 delta-hslV, growth: N-lim chemostat, doubling time 6 h
[4] = E. coli NCM3722 delta-lon, growth: N-lim chemostat, doubling time 6 h
[5] = E. coli NCM3722 delta-smpB, growth: N-lim chemostat, doubling time 6 h
[6] = wild type E. coli NCM3722, growth: C-lim chemostat, doubling time 3 h
[7] = wild type E. coli NCM3722, growth: C-lim chemostat, doubling time 6 h
[8] = wild type E. coli NCM3722, growth: C-lim chemostat, doubling time 12 h
[9] = wild type E. coli NCM3722, growth: N-lim chemostat, doubling time 6 h
[10] = wild type E. coli NCM3722, growth: N-lim chemostat, doubling time 12 h
[11] = wild type E. coli NCM3722, growth: P-lim chemostat, doubling time 6 h
[12] = wild type E. coli NCM3722, growth: P-lim chemostat, doubling time 12 h

With “MANSSSRYSVLTAAHWGPMLVETDGETVFSSRGALATGMENSLQSAVRDQVHSNTRVRFPMVRKGFLASPENPQGIRGQDEFVRVSWDEALDLIHQQHKRIREAYGPASIFAGSYGWRSNGVLHKASTLLQRYMALAGGYTGHLGDYSTGAAQAIMPYVVGGSEVYQQQTSWPLVLEHSDVVVLWSANPLNTLKIAWNASDEQGLSYFSALRDSGKKLICIDPMRSETVDFFGDKMEWVAPHMGTDVALMLGIAHTLVENGWHDEAFLARCTTGYAVFASYLLGESDGIAKTAEWAAEICGVGAAKIRELAAIFHQNTTMLMAGWGMQRQQFGEQKHWMIVTLAAMLGQIGTPGGGFGLSYHFANGGNPTRRSAVLSSMQGSLPGGCDAVDKIPVARIVEALENPGGAYQHNGMNRHFPDIRFIWWAGGANFTHHQDTNRLIRAWQKPELVVISECFWTAAAKHADIVLPATTSFERNDLTMTGDYSNQHLVPMKQVVPPRYEARNDFDVFAELSERWEKGGYARFTEGKSELQWLETFYNVARQRGASQQVELPPFAEFWQANQLIEMPENPDSERFIRFADFCRDPLAHPLKTASGKIEIFSQRIADYGYPDCPGHPMWLEPDEWQGNAEPEQLQVLSAHPAHRLHSQLNYSSLRELYAVANREPVTIHPDDAQERGIQDGDTVRLWNARGQILAGAVISEGIKPGVICIHEGAWPDLDLTADGICKNGAVNVLTKDLPSSRLGNGCAGNTALAWLEKYNGPELTLTAFEPPASS” the “total protein half-life in vivo” value [1] was 4.73 ± 0.25 h, the “total protein half-life in vivo” value [2] was 3.43 ± 0.21 h and the “total protein half-life in vivo” value [3] was 3.62 ± 0.17 h. For the same sequence, the “total protein half-life in vivo” value [4] was 4.25 ± 0.41 h, the “total protein half-life in vivo” value [5] was 3.293 ± 0.026 h and the “total protein half-life in vivo” value [6] was 2.4 ± 0.26 h. The “total protein half-life in vivo” value [7] was 4.57 ± 0.6 h, the “total protein half-life in vivo” value [8] was 7.73 ± 0.2 h and the “total protein half-life in vivo” value [9] was 3.56 ± 0.24 h. The “total protein half-life in vivo” value [10] was 5.57 ± 0.67 h, the “total protein half-life in vivo” value [11] was 3.55 ± 0.4 h and the “total protein half-life in vivo” value [12] was 6.319 ± 0.0081 h.

In the case of “MANYFIDRPVFAWVLAIIMMLAGGLAIMNLPVAQYPQIAPPTITVSATYPGADAQTVEDSVTQVIEQNMNGLDGLMYMSSTSDAAGNASITLTFETGTSPDIAQVQVQNKLQLAMPSLPEAVQQQGISVDKSSSNILMVAAFISDNGSLNQYDIADYVASNIKDPLSRTAGVGSVQLFGSEYAMRIWLDPQKLNKYNLVPSDVISQIKVQNNQISGGQLGGMPQAADQQLNASIIVQTRLQTPEEFGKILLKVQQDGSQVLLRDVARVELGAEDYSTVARYNGKPAAGIAIKLAAGANALDTSRAVKEELNRLSAYFPASLKTVYPYDTTPFIEISIQEVFKTLVEAIILVFLVMYLFLQNFRATIIPTIAVPVVILGTFAILSAVGFTINTLTMFGMVLAIGLLVDDAIVVVENVERVIAEDKLPPKEATHKSMGQIQRALVGIAVVLSAVFMPMAFMSGATGEIYRQFSITLISSMLLSVFVAMSLTPALCATILKAAPEGGHKPNALFARFNTLFEKSTQHYTDSTRSLLRCTGRYMVVYLLICAGMAVLFLRTPTSFLPEEDQGVFMTTAQLPSGATMVNTTKVLQQVTDYYLTKEKDNVQSVFTVGGFGFSGQGQNNGLAFISLKPWSERVGEENSVTAIIQRAMIALSSINKAVVFPFNLPAVAELGTASGFDMELLDNGNLGHEKLTQARNELLSLAAQSPNQVTGVRPNGLEDTPMFKVNVNAAKAEAMGVALSDINQTISTAFGSSYVNDFLNQGRVKKVYVQAGTPFRMLPDNINQWYVRNASGTMAPLSAYSSTEWTYGSPRLERYNGIPSMEILGEAAAGKSTGDAMKFMADLVAKLPAGVGYSWTGLSYQEALSSNQAPALYAISLVVVFLALAALYESWSIPFSVMLVVPLGVVGALLATDLRGLSNDVYFQVGLLTTIGLSAKNAILIVEFAVEMMQKEGKTPIEAIIEAARMRLRPILMTSLAFILGVLPLVISHGAGSGAQNAVGTGVMGGMFAATVLAIYFVPVFFVVVEHLFARFKKA”, the “total protein half-life in vivo” value [1] is reported as 6.822 ± 0.011 h, the “total protein half-life in vivo” value [3] is reported as 5.41 ± 0.53 h and the “total protein half-life in vivo” value [4] is reported as 5.03 ± 0.059 h. The “total protein half-life in vivo” value [9] was 5.55 h, the “total protein half-life in vivo” value [10] was 12.5 ± 3.7 h and the “total protein half-life in vivo” value [11] was 5.7 ± 0.79 h. The “total protein half-life in vivo” value [12] was 12.5 ± 1.6 h.

With “MANYFNTLNLRQQLAQLGKCRFMGRDEFADGASYLQGKKVVIVGCGAQGLNQGLNMRDSGLDISYALRKEAIAEKRASWRKATENGFKVGTYEELIPQADLVINLTPDKQHSDVVRTVQPLMKDGAALGYSHGFNIVEVGEQIRKDITVVMVAPKCPGTEVREEYKRGFGVPTLIAVHPENDPKGEGMAIAKAWAAATGGHRAGVLESSFVAEVKSDLMGEQTILCGMLQAGSLLCFDKLVEEGTDPAYAEKLIQFGWETITEALKQGGITLMMDRLSNPAKLRAYALSEQLKEIMAPLFQKHMDDIISGEFSSGMMADWANDDKKLLTWREETGKTAFETAPQYEGKIGEQEYFDKGVLMIAMVKAGVELAFETMVDSGIIEESAYYESLHELPLIANTIARKRLYEMNVVISDTAEYGNYLFSYACVPLLKPFMAELQPGDLGKAIPEGAVDNGQLRDVNEAIRSHAIEQVGKKLRGYMTDMKRIAVAG” the “total protein half-life in vivo” value [1] was 3.97 ± 0.51 h, the “total protein half-life in vivo” value [2] was 3.59 ± 0.64 h and the “total protein half-life in vivo” value [3] was 3.31 ± 0.22 h. The “total protein half-life in vivo” value [4] was 3.72 ± 0.042 h, the “total protein half-life in vivo” value [5] was 3.46 ± 0.06 h and the “total protein half-life in vivo” value [6] was 3.035 ± 0.013 h. The “total protein half-life in vivo” value [7] was 5.6 ± 0.11 h, the “total protein half-life in vivo” value [8] was 10.3 ± 0.33 h and the “total protein half-life in vivo” value [9] was 3.472 ± 0.017 h. The “total protein half-life in vivo” value [10] was 5.36 ± 0.15 h, the “total protein half-life in vivo” value [11] was 5.67 ± 0.26 h and the “total protein half-life in vivo” value [12] was 11.9 ± 0.2 h.

In the case of “MAQIFNFSSGPAMLPAEVLKQAQQELRDWNGLGTSVMEVSHRGKEFIQVAEEAEKDFRDLLNVPSNYKVLFCHGGGRGQFAAVPLNILGDKTTADYVDAGYWAASAIKEAKKYCTPNVFDAKVTVDGLRAVKPMREWQLSDNAAYMHYCPNETIDGIAIDETPDFGADVVVAADFSSTILSRPIDVSRYGVIYAGAQKNIGPAGLTIVIVREDLLGKANIACPSILDYSILNDNGSMFNTPPTFAWYLSGLVFKWLKANGGVAEMDKINQQKAELLYGVIDNSDFYRNDVAKANRSRMNVPFQLADSALDKLFLEESFAAGLHALKGHRVVGGMRASIYNAMPLEGVKALTDFMVEFERRHG”, the “total protein half-life in vivo” value [1] is reported as 5.23 ± 1.6 h, the “total protein half-life in vivo” value [2] is reported as 3.87 ± 0.14 h and the “total protein half-life in vivo” value [3] is reported as 3.6976 ± 0.003 h. For the same sequence, the “total protein half-life in vivo” value [4] was 4.479 ± 0.022 h, the “total protein half-life in vivo” value [5] was 3.55 ± 0.13 h and the “total protein half-life in vivo” value [6] was 3.13 ± 0.2 h. For the same sequence, the “total protein half-life in vivo” value [7] was 5.71 ± 0.44 h, the “total protein half-life in vivo” value [8] was 11.1 ± 2.7 h and the “total protein half-life in vivo” value [9] was 3.83 ± 0.23 h. The “total protein half-life in vivo” value [10] was 5.898 ± 0.048 h, the “total protein half-life in vivo” value [11] was 5.74 ± 0.69 h and the “total protein half-life in vivo” value [12] was 11.8 ± 0.42 h.

In the case of “MAQLKFNSILVVCTGNICRSPIGERLLRKRLPGVKVKSAGVHGLVKHPADATAADVAANHGVSLEGHAGRKLTAEMARNYDLILAMESEHIAQVTAIAPEVRGKTMLFGQWLEQKEIPDPYRKSQDAFEHVYGMLERASQEWAKRLSR [P0ACZ2]”, the “total protein half-life in vivo” value [1] is reported as 4.76 ± 0.95 h and the “total protein half-life in vivo” value [11] is reported as 2.72 h.

With “MAQPAAIIRIKNLRLRTFIGIKEEEINNRQDIVINVTIHYPADKARTSEDINDALNYRTVTKNIIQHVENNRFSLLEKLTQDVLDIAREHHWVTYAEVEIDKLHALRYADSVSMTLSWQR [P0AC19]” the “total protein half-life in vivo” value [1] was 4.1 ± 0.57 h, the “total protein half-life in vivo” value [2] was 2.73 ± 0.7 h and the “total protein half-life in vivo” value [3] was 2.79 ± 0.23 h. For the same sequence, the “total protein half-life in vivo” value [4] was 3.5 ± 0.081 h, the “total protein half-life in vivo” value [5] was 2.93 ± 0.14 h and the “total protein half-life in vivo” value [7] was 4.77 ± 0.2 h. For the same sequence, the “total protein half-life in vivo” value [8] was 10 ± 4 h, the “total protein half-life in vivo” value [9] was 2.58 ± 0.23 h and the “total protein half-life in vivo” value [10] was 3.989 ± 0.015 h. For the same sequence, the “total protein half-life in vivo” value [11] was 5.16 ± 0.45 h and the “total protein half-life in vivo” value [12] was 11.5 ± 0.42 h.
